Laboratory results from the supplement of paper PMC7877785.
± gives the uncertainty stated by the source.

Assay: self-splicing fitness, log relative to wild type (ln ratio); higher = more splicing; Tetrahymena group I intron in knt gene, E. coli kanamycin selection, DiMSum; sequences stand for … in CUCUCU…GGAGGGAAAAGUUAUCAGGCAUGCACCUGGUAGCUAGUCUUUAAACCAAUAGAUUGCAUCGGUUUAAAAGGCAAGACCGUCAAAUUGCGGGAAAGGGGUCAACAGCCGUUCAGUACCAAGUCUCAGGGGAAACUUUGAGAUGGCCUUGCAAAGGGUAUGGUAAUAAGCUGACGGACAUGGUCCUAACCACGCAGCCAAGUCCUAAGUCAACAGAUCUUCUGUUGAUAUGGAUGCAGUUCACAGACUAAAUGUCGGUCGGGGAAGAUGUAUUCUUCUCAUAAGAUAUAGUCGGACCUCUCCUUAAUGGGAGCUAGCGGAUGAAGUGAUGCAACACUGGAGCCGCUGGGAACUAAUUUGUAUGCGAAAGUAUAUUGAUUAGUUUUGGAGUACUCGUGGUCG
Outline: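 Pooled colonies went to amplicon sequencing on an Illumina HiSeq 2500 after six replicate transformations. The plates were LB agar with 100 μg/mL carbenicillin, 50 μM IPTG and 0.2% rhamnose, with or without 25 μg/mL kanamycin, incubated overnight at 37°C or 30°C. The E. coli BL21(DE3) library had all eight P1ex-region intron nucleotides randomised, the intron placed in the knt kanamycin-resistance gene on pET-22b(+). DiMSum fitness is the error-weighted combination of replicate fold changes, kanamycin against none, normalised to wild type.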

| Sequence | self-splicing fitness (ln) (30 °C) | self-splicing fitness (ln) (37 °C) |
| --- | --- | --- |
| UAAAAGCAAUAUUACGUACU | -0.876 ± 0.073 | -0.401 ± 0.092 |
| UAAAAGCAAUAUUACGUCCG | -0.59 ± 0.082 | 0.205 ± 0.1 |
| UAAAAGCAAUAUUACGUUCA | -0.437 ± 0.083 | -0.259 ± 0.091 |
| UAAAAGCAAUAUUACGUUGC | -3.72 ± 0.27 | -3.17 ± 0.4 |
| UAAAAGCAAUAUUACGUUUG | -2.22 ± 0.1 | -0.909 ± 0.11 |
| UAACAGCAAUAUUACGAAGC | -3.19 ± 0.19 | -2.3 ± 0.27 |
| UAACAGCAAUAUUACGAAUC | -2.67 ± 0.18 | -2.66 ± 0.29 |
| UAACAGCAAUAUUACGACUC | -0.882 ± 0.084 | -0.517 ± 0.11 |
| UAACAGCAAUAUUACGAGAU | -4.15 ± 0.33 | -2.9 ± 0.2 |
| UAACAGCAAUAUUACGAGUC | -3.74 ± 0.23 | -2.05 ± 0.22 |
| UAACAGCAAUAUUACGAUAA | -1.1 ± 0.076 | -0.209 ± 0.08 |
| UAACAGCAAUAUUACGAUCU | -1.04 ± 0.073 | 0.151 ± 0.099 |
| UAACAGCAAUAUUACGCAGG | -2.5 ± 0.09 | -0.402 ± 0.08 |
| UAACAGCAAUAUUACGCGCC | -1.47 ± 0.1 | -0.587 ± 0.13 |
| UAACAGCAAUAUUACGCUAA | -1.93 ± 0.13 | -1.25 ± 0.12 |
| UAACAGCAAUAUUACGCUGU | -3.79 ± 0.16 | -2.62 ± 0.19 |
| UAACAGCAAUAUUACGGCAC | -2.47 ± 0.13 | -1.63 ± 0.14 |
| UAACAGCAAUAUUACGGUAA | -2.07 ± 0.095 | -1.22 ± 0.081 |
| UAACAGCAAUAUUACGUAAA | -2.6 ± 0.089 | -0.884 ± 0.084 |
| UAACAGCAAUAUUACGUAUC | -3.56 ± 0.19 | -2.43 ± 0.15 |
| UAACAGCAAUAUUACGUAUG | -1.52 ± 0.058 | -0.164 ± 0.075 |
| UAACAGCAAUAUUACGUCCU | -0.956 ± 0.085 | -0.192 ± 0.1 |
| UAACAGCAAUAUUACGUCUA | -0.13 ± 0.049 | 0.144 ± 0.06 |
| UAACAGCAAUAUUACGUCUU | -1.12 ± 0.052 | -0.0714 ± 0.06 |
| UAACAGCAAUAUUACGUGUA | -1.6 ± 0.056 | -0.0928 ± 0.06 |

| Sequence | self-splicing fitness (ln) (30 °C) | self-splicing fitness (ln) (37 °C) |
| --- | --- | --- |
| UAACAGCAAUAUUACGUUUG | -2.13 ± 0.079 | -0.759 ± 0.081 |
| UAAGAGCAAUAUUACGAACG | – | -2.57 ± 0.41 |
| UAAGAGCAAUAUUACGAAGG | -4.21 ± 0.34 | -1.81 ± 0.2 |
| UAAGAGCAAUAUUACGAAUA | -3.27 ± 0.26 | -1.32 ± 0.19 |
| UAAGAGCAAUAUUACGACAU | -3.866 ± 0.031 | -2.82 ± 0.043 |
| UAAGAGCAAUAUUACGAGGG | -3.64 ± 0.14 | -2.53 ± 0.16 |
| UAAGAGCAAUAUUACGAUAU | -3.22 ± 0.24 | -2.86 ± 0.28 |
| UAAGAGCAAUAUUACGCAAG | -3.12 ± 0.44 | -1.51 ± 0.45 |
| UAAGAGCAAUAUUACGCGCU | -3.17 ± 0.28 | -3.35 ± 0.39 |
| UAAGAGCAAUAUUACGCGUA | -1.55 ± 0.29 | 0.00439 ± 0.15 |
| UAAGAGCAAUAUUACGCUAG | -3.86 ± 0.26 | -1.94 ± 0.21 |
| UAAGAGCAAUAUUACGCUAU | -3.95 ± 0.32 | -2.64 ± 0.24 |
| UAAGAGCAAUAUUACGGAUU | – | -2.13 ± 0.48 |
| UAAGAGCAAUAUUACGGGAA | -2.21 ± 0.3 | -1.77 ± 0.24 |
| UAAGAGCAAUAUUACGGGUA | -2.57 ± 0.2 | -1.59 ± 0.17 |
| UAAGAGCAAUAUUACGGUAA | -2.55 ± 0.21 | -3.19 ± 0.28 |
| UAAGAGCAAUAUUACGGUUA | -1.12 ± 0.12 | -0.602 ± 0.1 |
| UAAGAGCAAUAUUACGUAAC | -5.23 ± 0.45 | -1.44 ± 0.18 |
| UAAGAGCAAUAUUACGUCAA | -3.41 ± 0.25 | -2.36 ± 0.18 |
| UAAGAGCAAUAUUACGUCUC | -4.3 ± 0.34 | -2.31 ± 0.21 |
| UAAGAGCAAUAUUACGUGAA | -1.72 ± 0.17 | -1.74 ± 0.29 |
| UAAGAGCAAUAUUACGUGAG | -1.37 ± 0.13 | -0.181 ± 0.23 |
| UAAGAGCAAUAUUACGUGGU | -3.74 ± 0.24 | -2.57 ± 0.19 |
| UAAGAGCAAUAUUACGUUAC | – | -2.7 ± 0.34 |
| UAAGAGCAAUAUUACGUUUC | -3.76 ± 0.26 | -2.51 ± 0.39 |

| Sequence | self-splicing fitness (ln) (30 °C) | self-splicing fitness (ln) (37 °C) |
| --- | --- | --- |
| UAAGAGCAAUAUUACGUUUG | -2.33 ± 0.096 | -1.07 ± 0.12 |
| UAAUAGCAAUAUUACGACUC | -3.23 ± 0.25 | -1.03 ± 0.23 |
| UAAUAGCAAUAUUACGACUU | -0.84 ± 0.1 | -0.376 ± 0.094 |
| UAAUAGCAAUAUUACGAGCG | -1.02 ± 0.1 | -0.261 ± 0.15 |
| UAAUAGCAAUAUUACGAGGG | -3.81 ± 0.39 | -1.73 ± 0.23 |
| UAAUAGCAAUAUUACGAGGU | -3.06 ± 0.2 | -2.65 ± 0.26 |
| UAAUAGCAAUAUUACGAUAA | -3.33 ± 0.2 | -1.78 ± 0.16 |
| UAAUAGCAAUAUUACGAUGC | -3.45 ± 0.3 | – |
| UAAUAGCAAUAUUACGAUGU | -2.78 ± 0.18 | -2.48 ± 0.19 |
| UAAUAGCAAUAUUACGCAGA | – | -0.288 ± 0.16 |
| UAAUAGCAAUAUUACGCCGA | -1.01 ± 0.29 | -1.51 ± 0.44 |
| UAAUAGCAAUAUUACGCUUU | -3.54 ± 0.44 | -1.5 ± 0.2 |
| UAAUAGCAAUAUUACGGCCA | -0.34 ± 0.17 | 0.175 ± 0.18 |
| UAAUAGCAAUAUUACGGCUU | -0.901 ± 0.096 | -0.115 ± 0.13 |
| UAAUAGCAAUAUUACGGGGC | -3.12 ± 0.31 | -2.84 ± 0.31 |
| UAAUAGCAAUAUUACGGGUC | -3.33 ± 0.3 | -1.58 ± 0.28 |
| UAAUAGCAAUAUUACGUAAG | -2.47 ± 0.21 | -0.977 ± 0.15 |
| UAAUAGCAAUAUUACGUACA | -1.05 ± 0.11 | -0.0465 ± 0.13 |
| UAAUAGCAAUAUUACGUAUC | – | -2.68 ± 0.48 |
| UAAUAGCAAUAUUACGUAUU | -4.09 ± 0.28 | -1.95 ± 0.16 |
| UAAUAGCAAUAUUACGUCAA | -2.33 ± 0.17 | -1.77 ± 0.15 |
| UAAUAGCAAUAUUACGUGCG | 0.0578 ± 0.065 | -0.0439 ± 0.091 |
| UAAUAGCAAUAUUACGUUGA | -2.67 ± 0.2 | -2.54 ± 0.18 |
| UAAUAGCAAUAUUACGUUGU | -3.53 ± 0.18 | -1.98 ± 0.19 |
| UACAAGCAAUAUUACGAAUG | -0.773 ± 0.065 | -0.319 ± 0.086 |

| Sequence | self-splicing fitness (ln) (30 °C) | self-splicing fitness (ln) (37 °C) |
| --- | --- | --- |
| UACAAGCAAUAUUACGACAC | -3.15 ± 0.18 | -1.38 ± 0.15 |
| UACAAGCAAUAUUACGACUC | -2.6 ± 0.14 | -1.2 ± 0.16 |
| UACAAGCAAUAUUACGAUCC | -3.27 ± 0.27 | -1.78 ± 0.24 |
| UACAAGCAAUAUUACGCAAU | -3.44 ± 0.21 | -2.47 ± 0.23 |
| UACAAGCAAUAUUACGCAGC | -4 ± 0.42 | -2.63 ± 0.39 |
| UACAAGCAAUAUUACGCCUU | -0.984 ± 0.091 | -1.04 ± 0.092 |
| UACAAGCAAUAUUACGCGAG | -1.62 ± 0.11 | -0.536 ± 0.1 |
| UACAAGCAAUAUUACGGAUU | -3.61 ± 0.15 | -0.762 ± 0.09 |
| UACAAGCAAUAUUACGGCCG | -0.0815 ± 0.085 | 0.427 ± 0.13 |
| UACAAGCAAUAUUACGGCGA | -0.244 ± 0.072 | 0.0939 ± 0.087 |
| UACAAGCAAUAUUACGGUAG | -2.15 ± 0.089 | -1.43 ± 0.086 |
| UACAAGCAAUAUUACGUACC | -2.83 ± 0.19 | -1.93 ± 0.19 |
| UACAAGCAAUAUUACGUAUU | -4.29 ± 0.19 | -2.32 ± 0.13 |
| UACAAGCAAUAUUACGUCAC | -3.37 ± 0.2 | -2.41 ± 0.17 |
| UACAAGCAAUAUUACGUCGU | -3.83 ± 0.18 | -2.04 ± 0.17 |
| UACAAGCAAUAUUACGUUCC | -3.65 ± 0.28 | -2.58 ± 0.25 |
| UACCAGCAAUAUUACGACAC | -2.34 ± 0.13 | -1.16 ± 0.15 |
| UACCAGCAAUAUUACGAGUC | -1.59 ± 0.12 | -1.24 ± 0.12 |
| UACCAGCAAUAUUACGCACA | -0.477 ± 0.088 | 0.0379 ± 0.092 |
| UACCAGCAAUAUUACGCGAC | -3.1 ± 0.11 | -1.58 ± 0.12 |
| UACCAGCAAUAUUACGCGCG | 0.11 ± 0.068 | 0.573 ± 0.09 |
| UACCAGCAAUAUUACGCGGG | -3.61 ± 0.21 | -1.31 ± 0.17 |
